Experimental data: the supplement of paper PMC7877785
± gives the uncertainty stated by the source.

Test: self-splicing fitness, log relative to wild type (ln ratio); higher = more splicing; Tetrahymena group I intron in knt gene, E. coli kanamycin selection, DiMSum; sequences stand for … in CUCUCU…GGAGGGAAAAGUUAUCAGGCAUGCACCUGGUAGCUAGUCUUUAAACCAAUAGAUUGCAUCGGUUUAAAAGGCAAGACCGUCAAAUUGCGGGAAAGGGGUCAACAGCCGUUCAGUACCAAGUCUCAGGGGAAACUUUGAGAUGGCCUUGCAAAGGGUAUGGUAAUAAGCUGACGGACAUGGUCCUAACCACGCAGCCAAGUCCUAAGUCAACAGAUCUUCUGUUGAUAUGGAUGCAGUUCACAGACUAAAUGUCGGUCGGGGAAGAUGUAUUCUUCUCAUAAGAUAUAGUCGGACCUCUCCUUAAUGGGAGCUAGCGGAUGAAGUGAUGCAACACUGGAGCCGCUGGGAACUAAUUUGUAUGCGAAAGUAUAUUGAUUAGUUUUGGAGUACUCGUGGUCG
Summary of the method: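 Pooled colonies went to amplicon sequencing on an Illumina HiSeq 2500 after six replicate transformations. The plates were LB agar with 100 μg/mL carbenicillin, 50 μM IPTG and 0.2% rhamnose, with or without 25 μg/mL kanamycin, incubated overnight at 37°C or 30°C. The E. coli BL21(DE3) library had all eight P1ex-region intron nucleotides randomised, the intron placed in the knt kanamycin-resistance gene on pET-22b(+). DiMSum fitness is the error-weighted combination of replicate fold changes, kanamycin against none, normalised to wild type.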

Sequence	self-splicing fitness (ln) (30 °C)	self-splicing fitness (ln) (37 °C)
GUAGAGCAAUAUUACGUAUG	-3.88 ± 0.22	-3.78 ± 0.23
GUAGAGCAAUAUUACGUCUG	-1.6 ± 0.15	-1.58 ± 0.21
GUAGAGCAAUAUUACGUCUU	-0.122 ± 0.075	0.195 ± 0.083
GUAGAGCAAUAUUACGUUCU	-2.74 ± 0.12	-0.917 ± 0.099
GUAGAGCAAUAUUACGUUGU	-2.53 ± 0.3	-0.699 ± 0.29
GUAUAGCAAUAUUACGAAAU	-3.05 ± 0.25	-1.63 ± 0.22
GUAUAGCAAUAUUACGAAUG	-3 ± 0.24	-2.32 ± 0.28
GUAUAGCAAUAUUACGACGC	-0.42 ± 0.16	0.113 ± 0.18
GUAUAGCAAUAUUACGAGCA	-2.06 ± 0.2	-1.12 ± 0.16
GUAUAGCAAUAUUACGAUGA	-1.62 ± 0.16	-0.697 ± 0.14
GUAUAGCAAUAUUACGCACA	-1.11 ± 0.13	0.279 ± 0.16
GUAUAGCAAUAUUACGCAGA	-2.74 ± 0.32	-2.71 ± 0.34
GUAUAGCAAUAUUACGCCGA	-2.97 ± 0.41	-0.946 ± 0.36
GUAUAGCAAUAUUACGGAAC	-3.32 ± 0.15	-1.77 ± 0.13
GUAUAGCAAUAUUACGGCAC	-0.331 ± 0.3	
GUAUAGCAAUAUUACGGGAA		-2.54 ± 0.4
GUAUAGCAAUAUUACGGUGU	-3.29 ± 0.15	-1.38 ± 0.11
GUAUAGCAAUAUUACGUGAA	-3.69 ± 0.25	-1.67 ± 0.17
GUAUAGCAAUAUUACGUGCU	-2.77 ± 0.16	-1.91 ± 0.22
GUAUAGCAAUAUUACGUGUC	-4.58 ± 0.39	-1.42 ± 0.14
GUAUAGCAAUAUUACGUGUG	-3.28 ± 0.14	-2 ± 0.13
GUAUAGCAAUAUUACGUUUU	-1.97 ± 0.2	-2.37 ± 0.28
GUCAAGCAAUAUUACGAAGG	-4.64 ± 0.2	-3.95 ± 0.36
GUCAAGCAAUAUUACGAAGU	-2.51 ± 0.092	-1.16 ± 0.1
GUCAAGCAAUAUUACGACCU	-3.31 ± 0.41	-0.756 ± 0.46

Sequence	self-splicing fitness (ln) (30 °C)	self-splicing fitness (ln) (37 °C)
GUCAAGCAAUAUUACGAGUU	-3.15 ± 0.15	-0.638 ± 0.093
GUCAAGCAAUAUUACGAUUC	-1.76 ± 0.17	0.0525 ± 0.15
GUCAAGCAAUAUUACGCAAC	-4.34 ± 0.26	-2.36 ± 0.34
GUCAAGCAAUAUUACGCCCU	-0.585 ± 0.16	0.51 ± 0.15
GUCAAGCAAUAUUACGCCGC	-2.83 ± 0.28	-2.35 ± 0.46
GUCAAGCAAUAUUACGCGCG	-2 ± 0.13	-1.32 ± 0.15
GUCAAGCAAUAUUACGCGGG	-4.2 ± 0.2	-3.33 ± 0.24
GUCAAGCAAUAUUACGGCCC	-0.498 ± 0.33	
GUCAAGCAAUAUUACGGGAU	-5.19 ± 0.27	-2.96 ± 0.21
GUCAAGCAAUAUUACGGGCG	-3.08 ± 0.17	-0.583 ± 0.13
GUCAAGCAAUAUUACGGGGA		-2.77 ± 0.44
GUCAAGCAAUAUUACGGUAC	-3.07 ± 0.15	-0.924 ± 0.11
GUCAAGCAAUAUUACGGUGA	-2.82 ± 0.21	-2.22 ± 0.21
GUCAAGCAAUAUUACGUAAG	-2.15 ± 0.073	-1.57 ± 0.11
GUCAAGCAAUAUUACGUAGG	-3.17 ± 0.14	-2.28 ± 0.15
GUCAAGCAAUAUUACGUUCG	-2.63 ± 0.12	-2.1 ± 0.15
GUCCAGCAAUAUUACGACAA	-1.57 ± 0.14	-0.902 ± 0.11
GUCCAGCAAUAUUACGACAC	1.02 ± 0.18	0.572 ± 0.24
GUCCAGCAAUAUUACGACGG	-3.49 ± 0.2	-2.66 ± 0.23
GUCCAGCAAUAUUACGAGGG	-2.29 ± 0.24	-1.78 ± 0.24
GUCCAGCAAUAUUACGCACA	-1 ± 0.16	0.0214 ± 0.12
GUCCAGCAAUAUUACGCCAU	-2.78 ± 0.15	-1.48 ± 0.14
GUCCAGCAAUAUUACGCCGG	-2.64 ± 0.17	-2.69 ± 0.31
GUCCAGCAAUAUUACGCCUC	-0.866 ± 0.12	0.705 ± 0.15
GUCCAGCAAUAUUACGCUCG	-0.909 ± 0.15	-1.3 ± 0.22

Sequence	self-splicing fitness (ln) (30 °C)	self-splicing fitness (ln) (37 °C)
GUCCAGCAAUAUUACGGAAG	-0.697 ± 0.079	0.124 ± 0.084
GUCCAGCAAUAUUACGUCCC	-0.702 ± 0.12	0.424 ± 0.12
GUCCAGCAAUAUUACGUCGA	-0.796 ± 0.2	-0.589 ± 0.19
GUCCAGCAAUAUUACGUCUU	-0.409 ± 0.081	0.275 ± 0.092
GUCCAGCAAUAUUACGUGAA	0.0486 ± 0.079	0.617 ± 0.098
GUCCAGCAAUAUUACGUGCA	-1.55 ± 0.09	-0.54 ± 0.1
GUCCAGCAAUAUUACGUGCU	-4.08 ± 0.46	0.0205 ± 0.18
GUCCAGCAAUAUUACGUGUU	-1.52 ± 0.055	-0.617 ± 0.068
GUCCAGCAAUAUUACGUUGA	-0.801 ± 0.057	-0.239 ± 0.071
GUCCAGCAAUAUUACGUUGG	-3.27 ± 0.15	-2.13 ± 0.17
GUCGAGCAAUAUUACGACCU		-1.74 ± 0.26
GUCGAGCAAUAUUACGACGA	-3.05 ± 0.35	-1.28 ± 0.21
GUCGAGCAAUAUUACGACUA	-1.67 ± 0.23	-1.28 ± 0.18
GUCGAGCAAUAUUACGAUGU	-0.956 ± 0.059	-0.601 ± 0.084
GUCGAGCAAUAUUACGCACU	-1.47 ± 0.14	-0.953 ± 0.18
GUCGAGCAAUAUUACGCAUG	-3.47 ± 0.25	-2.43 ± 0.22
GUCGAGCAAUAUUACGCAUU	-2.45 ± 0.27	-0.95 ± 0.25
GUCGAGCAAUAUUACGCCAU	-2.99 ± 0.28	-2.4 ± 0.24
GUCGAGCAAUAUUACGCCUU	-1.46 ± 0.28	-1.77 ± 0.41
GUCGAGCAAUAUUACGCGUG	-1.25 ± 0.16	-1.24 ± 0.21
GUCGAGCAAUAUUACGCGUU	-1.64 ± 0.11	-0.556 ± 0.14
GUCGAGCAAUAUUACGCUGA		-2.01 ± 0.43
GUCGAGCAAUAUUACGGACG	-1.43 ± 0.18	-0.738 ± 0.21
GUCGAGCAAUAUUACGGCCC		-1.43 ± 0.4
GUCGAGCAAUAUUACGGCGC	-0.811 ± 0.25	-0.631 ± 0.44

Sequence	self-splicing fitness (ln) (30 °C)	self-splicing fitness (ln) (37 °C)
GUCGAGCAAUAUUACGGCGU	-0.43 ± 0.19	-0.689 ± 0.14
GUCGAGCAAUAUUACGGUAC	-1.98 ± 0.11	-1.91 ± 0.16
GUCGAGCAAUAUUACGGUCG	-2.44 ± 0.22	-1.94 ± 0.28
GUCGAGCAAUAUUACGGUCU	-3.35 ± 0.28	-1.12 ± 0.18
GUCGAGCAAUAUUACGUGUA	-3.26 ± 0.2	-2.12 ± 0.19
GUCUAGCAAUAUUACGAACA	-1.13 ± 0.13	-0.831 ± 0.11
GUCUAGCAAUAUUACGAACC	-1.25 ± 0.19	-0.145 ± 0.28
GUCUAGCAAUAUUACGACAU	-0.643 ± 0.014	-0.146 ± 0.032
GUCUAGCAAUAUUACGAGUG	-1.99 ± 0.1	-1.05 ± 0.1
GUCUAGCAAUAUUACGCGCG	-1.36 ± 0.15	-0.687 ± 0.14
GUCUAGCAAUAUUACGCGUG	-0.894 ± 0.058	-0.777 ± 0.072
GUCUAGCAAUAUUACGCUAG	-2.97 ± 0.32	-2.31 ± 0.31
GUCUAGCAAUAUUACGCUUA	-0.87 ± 0.077	0.645 ± 0.097
GUCUAGCAAUAUUACGGCGA	-0.49 ± 0.22	-0.132 ± 0.21
GUCUAGCAAUAUUACGGCGG	-2.66 ± 0.42	-2.32 ± 0.4
GUCUAGCAAUAUUACGGCUG	-2.04 ± 0.18	-1.91 ± 0.21
GUCUAGCAAUAUUACGGGCG	-1.66 ± 0.28	-0.341 ± 0.17
GUCUAGCAAUAUUACGGGCU	-3.5 ± 0.27	-3.73 ± 0.3
GUCUAGCAAUAUUACGGGUA	-1.28 ± 0.11	-0.285 ± 0.09
GUCUAGCAAUAUUACGGUAU	-0.441 ± 0.1	0.315 ± 0.11
GUCUAGCAAUAUUACGUAAA	-0.871 ± 0.085	0.379 ± 0.092
GUCUAGCAAUAUUACGUCCA	-1.07 ± 0.31	-0.455 ± 0.21
